Experimental data from publication PMC7442819, “Taf14 recognizes a common motif in transcriptional machineries and facilitates their clustering by phase separation” (Nature Communications, 2020).

B1: Taf14ET (Taf14_(174–244)) [Saccharomyces cerevisiae] / Sth1EBM (Sth1_(1183–1240)) [Saccharomyces cerevisiae] (parent)
chain 1: EVKSSSVEIINGSESKKKKPKLTVKIKLNKTTVLENNDGKRAEEKPESKSPAKKTAAK
chain 2: KGSVDLEKLAFGLTKLNEDDLVGVVQMVTDNKTPEMNVTNNVEEGEFIIDLYSLPEGLLKSLWDYVKKNTE
B2: Snf5_(771–800) [Saccharomyces cerevisiae] / Taf14ET (Taf14_(174–244)) [Saccharomyces cerevisiae] (parent)
chain 1: SPPCYIIDHIPGHSLLLSIKLPGKVNTKEE
chain 2: B1 chain 2
B3: Ino80_(368–390) [Saccharomyces cerevisiae] / Taf14ET (Taf14_(174–244)) [Saccharomyces cerevisiae] (parent)
chain 1: DSKLNIKITLKQYHVKRLKKLIN
chain 2: B1 chain 2

Variants of: B1
Experiment: ITC
Conditions: with Sth1EBM (Sth1_(1183–1240)) [Saccharomyces cerevisiae]

Variant | screen value
chain 2 KGSVDLEKLAFGLTKLNEDDLVGVVQMVTDNKTPEMNVTNNVEEGEAIIDLYSLPEGLLKSLWDYVKKNTE [chain 2 F47A] | 8.16 kcal/mol
chain 2 KGSVDLEKLAFGLTKLNEDDLVGVVQMVTDNKTPEMNVTNNVEEGERIIDLYSLPEGLLKSLWDYVKKNTE [chain 2 F47R] | 5.99 kcal/mol
chain 2 KGSVDLEKLAFGLTKLNEDDLVGVVQMVTDNKTPEMNVTNNVEEGEFIRDLYSLPEGLLKSLWDYVKKNTE [chain 2 I49R] | 1.21 kcal/mol

Same assay, conditions: with Taf14ET (Taf14_(174–244)) [Saccharomyces cerevisiae]

Variant | screen value
chain 1 EVKSSSVEIINGSESKKKKPKATVKIKLNKTTVLENNDGKRAEEKPESKSPAKKTAAK [chain 1 L22A] | 7.23 kcal/mol
chain 1 EVKSSSVEIINGSESKKKKPKLTVKIKANKTTVLENNDGKRAEEKPESKSPAKKTAAK [chain 1 L28A] | 5.27 kcal/mol
chain 1 EVKSSSVEIINGSESKKKKPKLTAKIKLNKTTVLENNDGKRAEEKPESKSPAKKTAAK [chain 1 V24A] | 6.7 kcal/mol

Variants of: B2
Experiment: ITC
Conditions: with Taf14ET (Taf14_(174–244)) [Saccharomyces cerevisiae]

Variant | screen value
chain 1 SPPCYIIDHIPGHSLLASIKLPGKVNTKEE [chain 1 L17A] | 0.55 kcal/mol
chain 1 SPPCYIIDHIPGHSLLLSAKLPGKVNTKEE [chain 1 I19A] | 0.52 kcal/mol

Variants of: B3
Experiment: ITC
Conditions: with Taf14ET (Taf14_(174–244)) [Saccharomyces cerevisiae]

Variant | screen value
chain 1 DSKLNAKITLKQYHVKRLKKLIN [chain 1 I6A] | 4.41 kcal/mol
chain 1 DSKLNIKITAKQYHVKRLKKLIN [chain 1 L10A] | 3.42 kcal/mol
